Experimental data: the supplement of paper PMC9170038

Test system: MS2 coat protein
Assay: apparent KD of MS2 coat protein; designed switch direction (-1 OFF switch, 1 ON switch): -1; higher = weaker reporter binding
How it was run: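 Each step of the titration lasted 0.8–1.5 h at the lowest concentration and 10–20 min at the highest. The protein, SNAP-549-labelled MS2 coat protein, went from 0.7 or 1.5 nM doubling to 3 µM over RNA switches transcribed on Illumina chips by stalled E. coli RNA polymerase. Normalised cluster fluorescence was curve-fitted, and the per-design median over clusters is given as apparent KD.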

[1] = input ligand: microRNA oligo, concentration not stated
[2] = Eterna round: R95, input ligand: microRNA oligo, concentration not stated
[3] = Eterna round: R95, input ligand: FMN 200 uM
[4] = Eterna round: R95, input ligand: none

| Sequence | apparent KD of MS2 coat protein (input ligand: FMN 200 uM) [nM] | apparent KD of MS2 coat protein (input ligand: none) [nM] | apparent KD of MS2 coat protein [2] [nM] | also measured |
| --- | --- | --- | --- | --- |
| CAUUAUUAUCGAGGAUAUCCUAUUGAAAUUCUGGGAGAAGGCGGACUCAACAUGAGGAUCACCCAUGUGAGACGGAUGCUAGGG [Ex NG1 #27] (Eterna round: R96, puzzle: Exclusion NG 1) | – | – | – | apparent KD of MS2 coat protein [1]: 15 nM |
| CCAACAAGCUUUUUGCUCGACAUGAGGAUCACCCAUGUAAAAUGGGUAAAUUUAAAUUUAAAUUUAUUUAAAUUUGG [-16.3, -42.5 kcal, A 35%] (Eterna round: R97, puzzle: Sensor, turn-off variant 1) | 505 | 728 | – | – |
| CCAAGAAUAGGAUAUACACCAUGUCAGCUUAUAUACAACGCACAUGAGGAUCACCCAUGUAGAAGGGUUCUCUC [Exclusion-2-#2] (Eterna round: R97, puzzle: Exclusion 2) | 571 | 823 | – | – |
| CCAAGCUGUGUGAGGAUAUGCUGGUCCUUGGAUCAGCAGAAGGCACAUGAGGAUCACCCAUGUGAAAAGCUUGG [Mat - Exclusion 4 - JL Mod - D92] (puzzle: Brourd's mod of Exclusion 4) | – | – | 13.8 | – |
| CCACUGUCAGGAUAUCGUGCAUAACGUUUACAAUUUAUGUGCGAGAAGGGACAUGAGGAUCACCCAUGUAAACG [Omei Ex4 A28PK3] (Eterna round: R97, puzzle: Exclusion 4) | 227 | 203 | – | – |
| CCAGAGUGAGGAUAUGCAUAAAGGUGCUGUCCCGUGGCUUGACAUGAGGAUCACCCAUGUAGAAGGUGCGUUGU [Raonra] (Eterna round: R96, puzzle: Exclusion 2) | 51.6 | 54.4 | – | apparent KD of MS2 coat protein [1]: 35.6 nM |
| CCAGAGUGAGGAUAUGCAUAAAGGUGCUGUCCCGUGGCUUGACAUGAGGAUCACCCAUGUAGAAGGUGCGUUGU [Raonra] (puzzle: Exclusion 2) | – | – | 38.7 | – |
| CCAGGCGUCUUGGCUCGUCUUAUUUGGAGAGGAUUGAUAACAUGAGGAUCACCCAUGUGUGUGGGAGCGUUGCAGUG [JR_SV3TOV2_Sub019] (puzzle: Sensor v3, turn-off variant 2) | – | – | 137 | apparent KD of MS2 coat protein [3]: 75.5 nM; apparent KD of MS2 coat protein [4]: 102 nM |
| CCAUCGUGUGUGAGGAUAUGCUGGACCUUGGUUCAGCAGAAGGCACAUGAGGAUCACCCAUGUGAAUACGGUGG [Mat - Exclusion 4 - JL Mod - D90] (puzzle: Brourd's mod of Exclusion 4) | – | – | 16.1 | – |
| CCAUGCAGUGUGAGGAUAUGCUGGUCCUUGGAUCAGCAGAAGGCACAUGAGGAUCACCCAUGUGAAUAGCGUGG [Mat - Exclusion 4 - JL Mod - D84] (puzzle: Brourd's mod of Exclusion 4) | – | – | 36.6 | – |
| CCAUGUUAGCAGGAUAUGCAAUUAUUCUUUUAAGCAGAAGGGCUUACAUGAGGAUCACCCAUGUAACAUUUCAU [JR_E6_Sub081] (puzzle: Exclusion 6) | – | – | 17.3 | – |
| CCAUGUUAGCAGGAUAUGCAAUUAUUCUUUUACGCAGAAGGGCUUACAUGAGGAUCACCCAUGUAACAUUUCAU [JR_E6_Sub082] (puzzle: Exclusion 6) | – | – | 17.2 | – |
| CCCAGUUAUUCAGGAUAUUGUACAUGAGGAUCACCCAUGUAAUAAAUGAGGAUUUCGGGUGUCUACAAGAAGGGAAGGAUAGGC [Ostracism 19 - Jieux - Exclusion NG 2] (Eterna round: R96, puzzle: Exclusion NG 2) | 26.5 | 29.3 | – | apparent KD of MS2 coat protein [1]: 23.8 nM |
| CCCAUGUCAGGAUAUUAAUUGAGCAGGAAGCCCUGUUCACUUGAGAAGGGACAUGAGGAUCACCCAUGUAAAAC [Aesvea] (Eterna round: R97, puzzle: Exclusion 4) | 30.1 | 384 | – | – |
| CCCGCAGGCUUUUUGCUCGACAUGAGGAUCACCCAUGUUGAAUGGGUUGUGUGUGUGUGAUACAUAUAUAUGGUCCU [-26.2, -50.8 kcal, A 19%] (Eterna round: R97, puzzle: Sensor, turn-off variant 1) | 242 | 349 | – | – |
| CCCGGGCUUGUGAGGAUAUGCGCGCGGAAAUGUGUGUAGAAGGCACAUGAGGAUCACCCAUGUAAGGGCCCGGG [-32.4, -30.4 kcal, A 23%, 6-0] (Eterna round: R97, puzzle: Brourd's mod of Exclusion 4) | 19.3 | 148 | – | – |
| CCCGGGUCAGGAUAUGGGCCCGGGCCCGAAAGGGCCCGGGCCCAGAAGGGACAUGAGGAUCACCCAUGUCCGGG [-53.1, -50.9 kcal, 20% A] (Eterna round: R97, puzzle: Exclusion 4) | 26.7 | 24.3 | – | – |
| CCCGGGUUUGUAGGAUAUGCCCGCCUUUGGCGGGCAGAAGGACAUGAGGAUCACCCAUGUUGUAUAAACUUGGGAUGUUCCUCG [random4] (Eterna round: R96, puzzle: Exclusion NG 1) | 30.8 | 40.7 | – | apparent KD of MS2 coat protein [1]: 31.3 nM |

| Sequence | apparent KD of MS2 coat protein (input ligand: FMN 200 uM) [nM] | apparent KD of MS2 coat protein (input ligand: none) [nM] | apparent KD of MS2 coat protein [2] [nM] | also measured |
| --- | --- | --- | --- | --- |
| CCCGUCGAUGUAGGAUAUGCCCGGGUCUCCCGGGCAGAAGGACAUGAGGAUCACCCAUGUUCGUGAGGAUCACCCAUGAAUGGG [Double but mutated MS2] (Eterna round: R96, puzzle: Exclusion NG 1) | 15 | 19.4 | – | apparent KD of MS2 coat protein [1]: 13 nM |
| CCCGUGUAAGGAUAUCGUUCACUUGGCGAAAGUCGAGUGGACGAGAAGGUACAUGAGGAUCACCCAUGUACGGG [-36.1, -35.7 kcal, A 27%] (Eterna round: R97, puzzle: Exclusion 4) | 438 | 305 | – | – |
| CCCUAGUAUGUAGGAUAUCGGUCAGUUUCUGAUCGAGAAGGACAUGAGGAUCACCCAUGUAAAACGUCCGGUUUCUGGAUAGGG [JL ENG1 3.56] (Eterna round: R96, puzzle: Exclusion NG 1) | 73.2 | 24.6 | – | apparent KD of MS2 coat protein [1]: 17 nM |
| CCCUCACAUGAGGAUCACCCAUGUCAGGAUAUCUCACAUCGGCCUUAGGCCAAUGUCAAGAGAAGGGACGUAUC [Usanvequin] (puzzle: Exclusion 1) | – | – | 21.7 | – |
| CCGAAUAUGCAGGAUAUCGUAUCGGAAACGAUACGAGAAGGGUAAACAUGAGGAUCACCCAUGUUCCUUAACGG [Fiskers Ex 6 - 18] (puzzle: Exclusion 6) | – | – | 17.7 | – |
| CCGAUAAUGUAGGAUAUCGUAUCGGAAACGAUACGAGAAGGGCAAACAUGAGGAUCACCCAUGUUCCUUAACGG [Mat - Exclusion 6 - Eli Mod - D72] (puzzle: Exclusion 6) | – | – | 15.8 | – |
| CCGCGUGUCGGACUGGGUUACAUGAGGAUCACCCAUGUUCGGUAAACUAAGCGUUUGCUCGUCUAAACCAUUCUCGA [Eternabot (Original) Solution 24] (Eterna round: R97, puzzle: Sensor, turn-off variant 1) | 175 | 205 | – | – |
| CCGGAAAUACAGGAUAUAGGAGUAAAUAUACUCCUAGAAGGGUAUACAUGAGGAUCACCCAUGUGUCCUACCGG [Fiskers Ex 6 - 67] (puzzle: Exclusion 6) | – | – | 23.4 | – |
| CCGGAAAUGAAGGAUAUAGGUGUCGAUAGACACCUAGAAGGUCAUACAUGAGGAUCACCCAUGUGUCCUACCGG [Fiskers Ex 6 - 7] (puzzle: Exclusion 6) | – | – | 13.9 | – |
| CCGGAAAUGCAGGAUAUCGUAUCGGAUACGAUACGAGAAGGGUAUACAUGAGGAUCACCCAUGUGUCCUGCCGG [Fiskers Ex 6 - 54] (puzzle: Exclusion 6) | – | – | 39.8 | – |
| CCGGAUAUGCAGGAUAUCGUAUCGGAGACGAUACGAGAAGGGUAUACAUGAGGAUCACCCAUGUGCCUUACCGG [Mat - Exclusion 6 - Eli Mod - D82] (puzzle: Exclusion 6) | – | – | 19 | apparent KD of MS2 coat protein [3]: 23.3 nM; apparent KD of MS2 coat protein [4]: 20.7 nM |
| CCGGUUGGCGCAGGAUAUACAUGAGGAUCACCCAUGUUCAUGAGGAUCACCUAUGAGUUUUUGUUGUAGAAGGGUGGCCCGGCC (Eterna round: R96, puzzle: Exclusion NG 2) | 53.1 | 52.9 | – | apparent KD of MS2 coat protein [1]: 39.1 nM |
| CCGUGCACGCUGCGGUCCUACAUGAGGAUCACCCAUGUGGUCUGGUGGCGUGGGUCGCCGGACUUGGCUCGUCUUGU [salish99_S_TOV1_R5_020] (Eterna round: R97, puzzle: Sensor, turn-off variant 1) | 19.7 | 20.5 | – | – |
| CCGUUCCGUGUAGGAUAUUGGCCUACCACGGGCCGAGAAGGACAUGAGGAUCACCCAUGUAUGCUAUUAUCGCGCGUGGCGCCC [Design 99] (Eterna round: R96, puzzle: Exclusion NG 1) | 24 | 21.8 | – | apparent KD of MS2 coat protein [1]: 15.4 nM |
| CCUAGUUGGUAAGGAUAUCCUACACUGUUCUGACCCGGGCAAGCUACAUGAGGAUCACCCAUGUGGGAGAAGGUGCGUCAACGC [Design 13] (Eterna round: R96, puzzle: Exclusion NG 2) | 30.8 | 31.2 | – | apparent KD of MS2 coat protein [1]: 22.2 nM |
| CCUCAACAUGAGGAUCACCCAUGUCAGGAUAUGCGAAUUUCAUCAAAAGAUGAAAUUUGCAGAAGGGACUAAGC [Omei Ex1 A33] (Eterna round: R97, puzzle: Exclusion 1) | 303 | 133 | – | – |
| CCUCAGAUGUAGGAUAUCGCCCAGACAUUGCGGCGAGAAGGACAAACAUGAGGAUCACCCAUGUUAGUUUAGCA [Eternabot (L2) Solution 92] (Eterna round: R97, puzzle: Exclusion 6) | 257 | 32.3 | – | – |
| CCUCCACAUGAGGAUCACCCAUGUCAGGAUAUCGUGUGCGCGUUUUCGGUCUUUCGCGCGAGAAGGGACGUCUG (puzzle: Exclusion 1) | – | – | 24 | – |
